Results published in EP0266663A1.

What was measured:
L6 antigen (human) [1] = biological target: L6 antigen (human) (UniProt P30408); assay: inhibition of the binding of FITC-labelled mouse L6 to 3347 cells, flow cytometry; 50% inhibition; run with the pooled chimeric L6
L6 antigen (human) [2] = biological target: L6 antigen (human) (UniProt P30408); assay: inhibition of the binding of FITC-labelled mouse L6 to 3347 cells, flow cytometry; 50% inhibition; run with the chimeric L6 from ascites
L6 antigen (human) [3] = biological target: L6 antigen (human) (UniProt P30408); assay: inhibition of the binding of FITC-labelled mouse L6 to 3347 cells, flow cytometry; 50% inhibition
L6 antigen (human) [4] = biological target: L6 antigen (human) (UniProt P30408); assay: cell-based or functional assay

Sequence of UniProt P30408 (P30408 whole entry): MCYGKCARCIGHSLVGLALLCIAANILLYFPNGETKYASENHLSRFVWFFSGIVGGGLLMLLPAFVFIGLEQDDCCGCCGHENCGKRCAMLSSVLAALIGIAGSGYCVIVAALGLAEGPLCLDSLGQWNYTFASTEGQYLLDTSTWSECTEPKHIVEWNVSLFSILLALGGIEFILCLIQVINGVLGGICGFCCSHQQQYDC

IC50 (L6 antigen (human) [1]) | IC50 (L6 antigen (human) [2]) | IC50 (L6 antigen (human) [3]) | Substance | tumor killing activity (ADCC or CDC) (L6 antigen (human) [4])
2 µg/mL | 2.7 µg/mL | – | L6 monoclonal antibody (mouse, IgG2a) | –
– | – | 3.4 µg/mL | chimeric L6 antibody (from UniProt P01857 1-330) | 0.01 µg/mL
